The record followed here is the nanobody polyreactivity screen of Harvey et al. (2022).

This series can be described thus: yeast display, Sf9 membrane polyspecificity reagent, FACS + sequencing; frameworks hold sequencing errors. The gist of the method:
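Nanobodies from a synthetic yeast display library (Saccharomyces cerevisiae BJ5465), induced 36–48 hours with galactose, were stained 1 hour at 4 °C with 10% biotinylated, detergent-solubilized Sf9 membrane reagent, enriched on streptavidin microbeads, then FACS-sorted. Anti-HA (expression) and streptavidin (reagent binding) fluorescence set low and high (top ~1%) gates. Polyreactivity labels come from the gate of origin. Genes were colony-PCR amplified, MiSeq 2 × 250 sequenced and filtered by CDR length.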
For the sequence “QVQLVESGGGLVQAGGSLRLSCAASGRTSYVYAMGWYRQAPGKERELVAAITSSGGSTYYADSVKGRFTISRDNAKNTVYLQMNSLKPEDTAVYYCAAETYPVWGVAFYYWGQGTQVTVSS”, the “polyreactivity (PSR sort gate)” value is “high polyreactivity”.

“QVQLVESGGGLVQSGGSLRLSCAASGRTYDSYAMGWYRPAPGKERELVAVISRSGRTYYADSVKGRFTISRDNAKNTVYLQMNSLKPEDTAVYYCAAKWFRTWSGYWGQGSQVTVSS”: the “polyreactivity (PSR sort gate)” value was “high polyreactivity”.

Take “QVQLVESGGGLVQAGGSLRLSCAASGFILRIYTMGWYRQAPGKERELVAAINWSGGRTYYADSVKGRFTISRDNAKNTVYLHMNSLKPEDTAVYYCAAVYGVSVSKYYYWGQGTQVTVSS”: the “polyreactivity (PSR sort gate)” value is listed as “high polyreactivity”.

As for “QVQLVESCRGLVQAGGSLRLICAASGLTFRYYSMGWYRQAPGKERELVASISWCGASTYYADSVKGRFTISRDNAKNTVYLQMISLKPEDTAVYYCNAGYSGSYDYWGQGTQVTVSS”, the “polyreactivity (PSR sort gate)” value is listed as “high polyreactivity”.

Regarding “QVQLVESGGGLVQAGGSLRLSCAASGGTFYVNAMGLYRQAPGKERELVAGIRESGASTYYADSVKGRFTISRDNAKNTVYFQMNSLQPEDTAVYYCAVDGPYPAASQSEVGYDYWGQGTQVTVSS”, the “polyreactivity (PSR sort gate)” value is given as “low polyreactivity”.

As for “QVQLVESGGGLVQAGGSLRLSCAASGIFPYNAMGWYRQAPGKERELVAAITWSDGSTYYADSVKGRFTISRDNAKNTVYLQMNSLKPEDTAVYYCNTYRNPAEDYWGQGTQVTVSS”, the “polyreactivity (PSR sort gate)” value was “low polyreactivity”.

Take “QVQLVESGGGLVQAGGSLRLSCAASGLIFIDYAIGWYRQAPGKERELVAAITRGGARTYYADSVKGRFTISRDNAKNTVYLEMNSLKPEDTAVYYCAADRPGSRYIDVDYWGQGTQVTVSS”: the “polyreactivity (PSR sort gate)” value is “high polyreactivity”.

In the case of “QVQLVESGGGLVQAGGSLRLICAASGYTFLDYARGWYRQAPGKERELVASITSSGGSTYYADSVKGRFTISRDNAKNTVFLQMMSLIPEDTAVYYCASDGCIYYYFTLRYGYWGQGTQVTVSS”, the “polyreactivity (PSR sort gate)” value was “low polyreactivity”.

As to “QVQLVESGGGLVQAGGSLRLSCAASGSIFDNYALGWYRQAPGKERELVAAISWNGGDTTYADSVKGRFTISRDNAKNTVYLQMNSLKPEDTAVYYCAADLGYWVADFYWGQGTQVTVSS”, the “polyreactivity (PSR sort gate)” value is “high polyreactivity”.

For “QVQLLESGGGLVQAGGSLRLICSASGRTFSGYALGWYRHSPGRERELVAAITSSGSSKYYADSVKGRFTISRDKAKYTVYLQMKSLKPEDTAVYYCAATPQAHSEPYFYQRKYDFWGEGTQVTVSS”, the “polyreactivity (PSR sort gate)” value is “low polyreactivity”.

With “QVQLVESGGGLVQAGGSLRLSCAASGRTFESYGMGWYRQAPGKERELVAAITWSGGDTYYADSVKGRFTISRDNAKNTVYLQMNSLKPEDTAVYYCAKEQGLYSVSPYDYWGQGTQVTVSS”, the “polyreactivity (PSR sort gate)” value is given as “low polyreactivity”.

Regarding “QVQLVESGGGLVQAGGSLRLSCAASGYIFYRNAMGWYRQAPVKEREFVAAISSSGVSTYYADSVKGRFTISRDNAKNTVYLQMNSLKPEDTAVYYCAASYLTWKRRYDYWGQGTQVTVSS”, the “polyreactivity (PSR sort gate)” value was “high polyreactivity”.

In the case of “QVQLVESGGGLVQAGGSLRLSCAASGRTLHYYAMGWYRQAPGKERELVARINWSGGSTYYADSVKGRFTISRDNAKNTVYLQMNSLKPEDTAVYYCARTSYYWSSFDYWGQGTQVTVSS”, the “polyreactivity (PSR sort gate)” value is given as “high polyreactivity”.

As for “QVQLVESGGGLVQAGGSLRISCAASGSIFGVNAMGWYRQAPGKERELVASITGGDSTNYADSVKGRFTISRDNAKNTVYLQMNSLKPEDNEVYYCAKDHYYRYEEGDYWGQATQVTVSS”, the “polyreactivity (PSR sort gate)” value is “low polyreactivity”.

As to “QVQLVESGGGLVQAGGSLRLSCAASGIIFVKNAMGWYRQAPGKVRELVAAISRSGARTYYADSVKGRFTISRDNAKNTVYLLMNSLKPEDSAVYYCNKVVRYGHTRKIDTESDYWGQGTQVTVSS”, the “polyreactivity (PSR sort gate)” value was “high polyreactivity”.

In the case of “QVHLVESGGGLVQAGGSLRLSCAASGRIFHYNTMGWYRQAPGKERELVAAITSSGGSTYYADSVKGRFTISRDNAKNTVYLQMNSLKPEDTAVYYCNAVFYRYGFKVDYWGQGTQETVSS”, the “polyreactivity (PSR sort gate)” value is “high polyreactivity”.
